We go through two molecules from article PMC11947619, “Molecular mechanism of Mad2 conformational conversion promoted by the Mad2‐interaction motif of Cdc20” (Protein Science : A Publication of the Protein Society, 2025).

The subject of one data set is O‐Mad2. To be noted: in vitro, ref Lad et al., [2009], Simonetta et al.; cited from earlier work. An excerpt:
Juxtaposing the accessible Cdc20^MIM adjacent to O‐Mad2 by the MCC‐assembly scaffold involves the dimerization of an O‐Mad2 molecule with Mad1‐bound C‐Mad2 (Chen et al., [2023]; Fischer et al., [2022]; Lara‐Gonzalez et al., [2021]; Piano et al., [2021]).

A short description of data set [1]: Spontaneous O-Mad2 to C-Mad2 conversion / stability of the open state. To be noted: NMR backbone assignment samples. It is filed as physicochemical. On the procedure:
FIGURE 2 NMR fingerprinting of Mad2. (a) Structural orientations of Trp75 (on the αB helix) and Trp167 (on the “safety‐belt”) in Mad2 produce distinct indole NH resonances. […] NMR spectra for O‐Mad2^R133A and “empty” C‐Mad2^L13A/R133A and C‐Mad2^R133A:Cdc20^MIM‐111‐138 are from Fischer et al. ([2022]) (c) Mad2 conversion rates vary with different MIM peptides. Conversion was traced over 24 h at 25°C using the Trp75 and Trp167 side‐chain resonances as reporters. MIM peptides were added at two‐fold molar excess to Mad2 (100 μM). Each spectrum required 12 min of acquisition time, therefore the 15 min time‐points represent the earliest spectra in the time‐resolved series. The schematics show the conformation of Mad2 as indicated by the tryptophan side‐chain resonances. A black tick marks when conversion is considered complete. NMR data for O‐Mad2^R133A with and without Cdc20^MIM‐111‐138 shown are from Fischer et al. ([2022]). In the case of full‐length Cdc20, the MIM sequence is sequestered by an auto‐inhibitory intramolecular interaction within Cdc20 itself, which prevents it from being readily accessible for binding to C‐Mad2 (Piano et al., [2021]). Conversely, isolated MIM peptides lack this auto‐inhibitory mechanism, allowing them to bind directly to C‐Mad2 without obstruction. […]

As to C‐Mad2: Mad2 in the closed active state, in the data set with O‐Mad2, the “enhancement of O-Mad2 to C-Mad2 conversion rate by dimerization with C-Mad2” value was 3 to 4 fold.

B1: Mad2^LL: loop‐less Mad2: residues 109–117 (…) replaced with GSG (protein)
chain: MALQLSREQGITLRGSAEIVAEFFSFGINSILYQRGIYPSETFTRVQKYGLTLLVTTDLELIKYLNNVVEQLKDWLYKCSVQKLVVVISNIESGEVLERWQFDIECDKGSGEKSQKAIQDEIRSVIRQITATVTFLPLLEVSCSFDLLIYTDKDLVVPEKWEESGPQFITNSEEVRLRSFTTTIHKVNSMVAYKIPVND
modifications: left off: His6, N-terminal, state not stated | DoubleStrep, N-terminal, state not stated
notes: loop‐less Mad2: residues 109–117 (…) replaced with GSG
Turning to B1, the “limited stability (slow O-Mad2 to C-Mad2 conversion)” value in data set [1] is reported as under 3 days.
